This series can be described thus: self-splicing fitness, log relative to wild type (ln ratio); higher = more splicing; Tetrahymena group I intron in knt gene, E. coli kanamycin selection, DiMSum; sequences stand for … in CUCUCU…GGAGGGAAAAGUUAUCAGGCAUGCACCUGGUAGCUAGUCUUUAAACCAAUAGAUUGCAUCGGUUUAAAAGGCAAGACCGUCAAAUUGCGGGAAAGGGGUCAACAGCCGUUCAGUACCAAGUCUCAGGGGAAACUUUGAGAUGGCCUUGCAAAGGGUAUGGUAAUAAGCUGACGGACAUGGUCCUAACCACGCAGCCAAGUCCUAAGUCAACAGAUCUUCUGUUGAUAUGGAUGCAGUUCACAGACUAAAUGUCGGUCGGGGAAGAUGUAUUCUUCUCAUAAGAUAUAGUCGGACCUCUCCUUAAUGGGAGCUAGCGGAUGAAGUGAUGCAACACUGGAGCCGCUGGGAACUAAUUUGUAUGCGAAAGUAUAUUGAUUAGUUUUGGAGUACUCGUGGUCG
In a few lines: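 The eight P1ex-region nucleotides of an intron in the knt kanamycin-resistance gene on pET-22b(+) were all randomised and the library put into E. coli BL21(DE3). Six replicate transformations were grown overnight at 37°C or 30°C on LB agar with or without 25 μg/mL kanamycin, together with 100 μg/mL carbenicillin, 50 μM IPTG and 0.2% rhamnose. Colonies were pooled and amplicon-sequenced on an Illumina HiSeq 2500. Fitness from DiMSum is the error-weighted combination of wild-type-normalised replicate fold changes, kanamycin over none.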

± gives the uncertainty stated by the source.

Take ACAAAGCAAUAUUACGGUCC: the “self-splicing fitness (ln)” value by setting is: (30 °C) -1.7 ± 0.11; (37 °C) -0.977 ± 0.16.
For ACAAAGCAAUAUUACGGUUC, the “self-splicing fitness (ln)” value (30 °C) is -3.12 ± 0.13 and the “self-splicing fitness (ln)” value (37 °C) was -1.93 ± 0.17.
The corresponding values for ACAAAGCAAUAUUACGUAGU are -2.57 ± 0.085 and -1.43 ± 0.095.
The corresponding values for ACAAAGCAAUAUUACGUCCC are -0.873 ± 0.23 and -1.78 ± 0.25.
The corresponding values for ACAAAGCAAUAUUACGUUUA are -3.55 ± 0.13 and -0.482 ± 0.088.
In the case of ACACAGCAAUAUUACGAAGA, the “self-splicing fitness (ln)” value was -2.48 ± 0.1 (30 °C) and -1.99 ± 0.12 (37 °C).
The corresponding values for ACACAGCAAUAUUACGACAG are -1.62 ± 0.054 and -0.914 ± 0.077.
The corresponding values for ACACAGCAAUAUUACGAUAA are -2.46 ± 0.098 and -1.97 ± 0.11.
Taken in the same sequence, the figures for ACACAGCAAUAUUACGCACG were -0.797 ± 0.093 and -0.607 ± 0.12.
As for ACACAGCAAUAUUACGCGAG, the “self-splicing fitness (ln)” value runs as follows: (30 °C) -1.74 ± 0.053; (37 °C) -0.504 ± 0.061.
Taken in the same sequence, the figures for ACACAGCAAUAUUACGCGGA were -1.98 ± 0.072 and -1.1 ± 0.07.
Taken in the same sequence, the figures for ACACAGCAAUAUUACGGAGC were -2.36 ± 0.13 and -1.52 ± 0.12.
The corresponding values for ACACAGCAAUAUUACGGAGG are -2.69 ± 0.076 and -2.15 ± 0.098.
ACACAGCAAUAUUACGGGCU: the “self-splicing fitness (ln)” value was -2.08 ± 0.093 (30 °C) and -1.11 ± 0.13 (37 °C).
The corresponding values for ACACAGCAAUAUUACGGUUU are -1.05 ± 0.04 and -0.00178 ± 0.06.
For ACACAGCAAUAUUACGUAAC, the “self-splicing fitness (ln)” value is, setting by setting: (30 °C) -3.39 ± 0.12; (37 °C) -1.81 ± 0.14.
Regarding ACACAGCAAUAUUACGUAAU, the “self-splicing fitness (ln)” value is -2.76 ± 0.085 (30 °C) and -1.73 ± 0.12 (37 °C).
The corresponding values for ACACAGCAAUAUUACGUAGA are -3.64 ± 0.16 and -1.38 ± 0.11.
In the case of ACACAGCAAUAUUACGUAUU, the “self-splicing fitness (ln)” value was -3.09 ± 0.089 (30 °C) and -2.29 ± 0.13 (37 °C).
The corresponding values for ACACAGCAAUAUUACGUGAA are -1.84 ± 0.055 and -1.11 ± 0.079.
The corresponding values for ACACAGCAAUAUUACGUGUG are -3.55 ± 0.1 and -1.44 ± 0.065.
Taken in the same sequence, the figures for ACACAGCAAUAUUACGUUAA were -2.79 ± 0.13 and -2.12 ± 0.12.
As for ACAGAGCAAUAUUACGAAAA, the “self-splicing fitness (ln)” value (37 °C) is -3.05 ± 0.4.
For the sequence ACAGAGCAAUAUUACGACUG, the “self-splicing fitness (ln)” value was -1.05 ± 0.11 (30 °C) and -1.54 ± 0.15 (37 °C).
Taken in the same sequence, the figures for ACAGAGCAAUAUUACGAGGU were -3.36 ± 0.11 and -2.66 ± 0.15.
Taken in the same sequence, the figures for ACAGAGCAAUAUUACGAUGU were -3.39 ± 0.16 and -2.38 ± 0.18.
On to ACAGAGCAAUAUUACGCCCG, for which the “self-splicing fitness (ln)” value by setting is: (30 °C) -3.2 ± 0.21; (37 °C) -1.63 ± 0.18.
The corresponding values for ACAGAGCAAUAUUACGCUAU are -3.38 ± 0.27 and -1.12 ± 0.19.
Taken in the same sequence, the figures for ACAGAGCAAUAUUACGCUUU were -2.28 ± 0.26 and -2.45 ± 0.23.
Take ACAGAGCAAUAUUACGGCAA: the “self-splicing fitness (ln)” value runs as follows: (30 °C) -0.636 ± 0.22; (37 °C) -2.08 ± 0.33.
Taken in the same sequence, the figures for ACAGAGCAAUAUUACGGCCU were -3.08 ± 0.29 and -2.6 ± 0.25.
As for ACAGAGCAAUAUUACGGCGU, the “self-splicing fitness (ln)” value by setting is: (30 °C) -1.24 ± 0.12; (37 °C) -0.0954 ± 0.11.
On to ACAGAGCAAUAUUACGGGGC, for which the “self-splicing fitness (ln)” value (30 °C) was -3.53 ± 0.17 and the “self-splicing fitness (ln)” value (37 °C) was -2.73 ± 0.22.
Regarding ACAGAGCAAUAUUACGGGGU, the “self-splicing fitness (ln)” value (30 °C) was -4.03 ± 0.34 and the “self-splicing fitness (ln)” value (37 °C) was -2.39 ± 0.3.
In the case of ACAGAGCAAUAUUACGGGUC, the “self-splicing fitness (ln)” value reads like this: (30 °C) -2.99 ± 0.18; (37 °C) -2.89 ± 0.27.
Taken in the same sequence, the figures for ACAGAGCAAUAUUACGGUCC were -2.18 ± 0.14 and -2.05 ± 0.39.
The corresponding values for ACAGAGCAAUAUUACGUAAC are -2.71 ± 0.11 and -3.27 ± 0.26.
Taken in the same sequence, the figures for ACAGAGCAAUAUUACGUAGC were -3.27 ± 0.33 and -2.56 ± 0.41.
As for ACAGAGCAAUAUUACGUAUA, the “self-splicing fitness (ln)” value was -3.37 ± 0.26 (30 °C) and -2.72 ± 0.31 (37 °C).
In the case of ACAGAGCAAUAUUACGUGAG, the “self-splicing fitness (ln)” value reads like this: (30 °C) -2.08 ± 0.11; (37 °C) -1.55 ± 0.1.
Taken in the same sequence, the figures for ACAGAGCAAUAUUACGUGCG were -2.89 ± 0.29 and -1.75 ± 0.28.
Taken in the same sequence, the figures for ACAUAGCAAUAUUACGAAGG were -3.69 ± 0.28 and -1.33 ± 0.18.
The corresponding values for ACAUAGCAAUAUUACGACCU are -0.446 ± 0.1 and 0.527 ± 0.13.
ACAUAGCAAUAUUACGACUG: the “self-splicing fitness (ln)” value (30 °C) is -0.814 ± 0.065 and the “self-splicing fitness (ln)” value (37 °C) was -0.36 ± 0.09.
Taken in the same sequence, the figures for ACAUAGCAAUAUUACGAGUU were -3.28 ± 0.18 and -2.28 ± 0.2.
The corresponding values for ACAUAGCAAUAUUACGAUAU are -2.69 ± 0.15 and -1.97 ± 0.14.
Regarding ACAUAGCAAUAUUACGCCUA, the “self-splicing fitness (ln)” value (30 °C) is -1.7 ± 0.24 and the “self-splicing fitness (ln)” value (37 °C) is -0.307 ± 0.2.
Taken in the same sequence, the figures for ACAUAGCAAUAUUACGCCUG were -0.96 ± 0.16 and -0.622 ± 0.15.
Taken in the same sequence, the figures for ACAUAGCAAUAUUACGCGAU were -3.37 ± 0.21 and -2.35 ± 0.25.
Taken in the same sequence, the figures for ACAUAGCAAUAUUACGCGCG were -0.8 ± 0.12 and -0.126 ± 0.16.
Turning to ACAUAGCAAUAUUACGCGUC, the “self-splicing fitness (ln)” value is -3.71 ± 0.18 (30 °C) and -3.26 ± 0.28 (37 °C).
As for ACAUAGCAAUAUUACGCGUG, the “self-splicing fitness (ln)” value is -2.8 ± 0.1 (30 °C) and -1.28 ± 0.12 (37 °C).
Turning to ACAUAGCAAUAUUACGCUAG, the “self-splicing fitness (ln)” value was -2 ± 0.11 (30 °C) and -0.855 ± 0.13 (37 °C).
Taken in the same sequence, the figures for ACAUAGCAAUAUUACGCUCG were -0.317 ± 0.091 and 0.247 ± 0.12.
The corresponding values for ACAUAGCAAUAUUACGGGAA are -2.36 ± 0.11 and -1.7 ± 0.13.
The corresponding values for ACAUAGCAAUAUUACGGGAC are -3.23 ± 0.14 and -1.37 ± 0.12.
As for ACAUAGCAAUAUUACGGGGA, the “self-splicing fitness (ln)” value was -2.65 ± 0.29 (30 °C) and -1.92 ± 0.19 (37 °C).
In the case of ACAUAGCAAUAUUACGUCGA, the “self-splicing fitness (ln)” value was -1.95 ± 0.18 (30 °C) and -1.64 ± 0.15 (37 °C).
Taken in the same sequence, the figures for ACAUAGCAAUAUUACGUGCA were -0.639 ± 0.053 and 0.349 ± 0.063.
Consider ACAUAGCAAUAUUACGUGGC, for which the “self-splicing fitness (ln)” value is -3.8 ± 0.23 (30 °C) and -3.09 ± 0.27 (37 °C).
